Laboratory results reported in article PMC3898201.

Columns and labels:
[1] = molecular target: proteasome catalytic subunit β5 (in the purified rabbit 20S constitutive proteasome) (rabbit); experiment: FRET or BRET
[2] = molecular target: proteasome catalytic subunit β2 (in the purified rabbit 20S constitutive proteasome) (rabbit); experiment: FRET or BRET

FRET efficiency E [1]	FRET efficiency E (fluorophores swapped: LKSCy3:UKPCy5) [1]	FRET efficiency E [2]	Substance
0.55	0.55	0.18	proteasome catalytic subunit β1 (in the purified rabbit 20S constitutive proteasome) (natural protein)
		0.45	proteasome catalytic subunit β5 (in the purified rabbit 20S constitutive proteasome) (natural protein)
